This is an account of results in the supplement of paper PMC11316812.

The test system of one data set is MCF7. The experiment in a line: percentage of EdU-negative (G0-arrested) nuclei per well, 72 h; higher = more G0 arrest. Conditions: reference: sequence is the full UniProt precursor, the tested protein was the secreted form or ectodomain.
Another data set concerns hTERT-HMEC. The data set is described as above. Conditions: reference: sequence is the full UniProt precursor, the tested protein was the secreted form or ectodomain.
Setting [1] is: protein concentration 0.0261 µM.
[2] abbreviates: protein concentration 0.0225 µM.
The mark [3] stands for this setting: protein concentration 0.00742857 µM.
Setting [4] is: protein concentration 0.0742857 µM.
Setting [5] is: protein concentration 0.03125 µM.
[6] abbreviates: protein concentration 0.3125 µM.
The mark [7] stands for this setting: protein concentration 0.0325714 µM.
Where [8] appears, read: protein concentration 0.325714 µM.

± gives the standard deviation of the averaged measurements.
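Note: secreted proteins added to cultured cells, EdU pulse at the end, nuclei found by Hoechst imaging, EdU status from nuclear versus surrounding ring intensity ratio, PBS as neutral control.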

For the sequence “MRAPLLPPAPVVLSLLILGSGHYAAGLDLNDTYSGKREPFSGDHSADGFEVTSRSEMSSGSEISPVSEMPSSSEPSSGADYDYSEEYDNEPQIPGYIVDDSVRVEQVVKPPQNKTESENTSDKPKRKKKGGKNGKNRRNRKKKNPCNAEFQNFCIHGECKYIEHLEAVTCKCQQEYFGERCGEKSMKTHSMIDSSLSKIALAAIAAFMSAVILTAVAVITVQLRRQYVRKYEGEAEERKKLRQENGNVHAIA”, the “percentage of EdU-negative” value with MCF7 (setting [1]) came to 26.1 ± 0.68%; in the data set with MCF7 (protein concentration 0.261 µM), 25.9 ± 1.5%; in the data set with hTERT-HMEC (setting [1]), 5.2 ± 0.8%; in the data set on hTERT-HMEC (protein concentration 0.261 µM), 5.0893 ± 0.0048%.

For the sequence “MLLLVTSLLLCELPHPAFLLIPEKSDLRTVAPASSLNVRFDSRTMNLSWDCQENTTFSKCFLTDKKNRVVEPRLSNNECSCTFREICLHEGVTFEVHVNTSQRGFQQKLLYPNSGREGTAAQNFSCFIYNADLMNCTWARGPTAPRDVQYFLYIRNSKRRREIRCPYYIQDSGTHVGCHLDNLSGLTSRNYFLVNGTSREIGIQFFDSLLDTKKIERFNPPSNVTVRCNTTHCLVRWKQPRTYQKLSYLDFQYQLDVHRKNTQPGTENLLINVSGDLENRYNFPSSEPRAKHSVKIRAADVRILNWSSWSEAIEFGSDDGNLGSVYIYVLLIVGTLVCGIVLGFLFKRFLRIQRLFPPVPQIKDKLNDNHEVEDEIIWEEFTPEEGKGYREEVLTVKEIT”, the “percentage of EdU-negative” value in the data set on MCF7 (setting [2]) is 23.5 ± 1.9%; in the data set with MCF7 (protein concentration 0.225 µM), 25.3 ± 2.3%; in the data set on hTERT-HMEC (setting [2]) it was 5.11 ± 0.35%; in the data set on hTERT-HMEC (protein concentration 0.225 µM), 4.81 ± 0.71%.

Turning to “MGALARALPSILLALLLTSTPEALGANPGLVARITDKGLQYAAQEGLLALQSELLRITLPDFTGDLRIPHVGRGRYEFHSLNIHSCELLHSALRPVPGQGLSLSISDSSIRVQGRWKVRKSFFKLQGSFDVSVKGISISVNLLLGSESSGRPTVTASSCSSDIADVEVDMSGDLGWLLNLFHNQIESKFQKVLESRICEMIQKSVSSDLQPYLQTLPVTTEIDSFADIDYSLVEAPRATAQMLEVMFKGEIFHRNHRSPVTLLAAVMSLPEEHNKMVYFAISDYVFNTASLVYHEEGYLNFSITDDMIPPDSNIRLTTKSFRPFVPRLARLYPNMNLELQGSVPSAPLLNFSPGNLSVDPYMEIDAFVLLPSSSKEPVFRLSVATNVSATLTFNTSKITGFLKPGKVKVELKESKVGLFNAELLEALLNYYILNTFYPKFNDKLAEGFPLPLLKRVQLYDLGLQIHKDFLFLGANVQYMRV”, the “percentage of EdU-negative” value stood at 23.1 ± 3.5% in the data set on MCF7 (setting [3]), 26.4 ± 0.82% in the data set with MCF7 (setting [4]), 5.11 ± 0.45% in the data set with hTERT-HMEC (setting [3]) and 7.684 ± 0.069% in the data set with hTERT-HMEC (setting [4]).

On to “MALGVPISVYLLFNAMTALTEEAAVTVTPPITAQQGNWTVNKTEADNIEGPIALKFSHLCLEDHNSYCINGACAFHHELEKAICRCFTGYTGERCEHLTLTSYAVDSYEKYIAIGIGVGLLLSGFLVIFYCYIRKRCLKLKSPYNVCSGERRPL”, for which the “percentage of EdU-negative” value with MCF7 (setting [5]) was 26.2 ± 0.87%; in the data set with MCF7 (setting [6]), 27 ± 2.6%; in the data set on hTERT-HMEC (setting [5]), 5.25 ± 0.34%; with hTERT-HMEC (setting [6]), 5.12 ± 0.77%.

Turning to “MWWRVLSLLAWFPLQEASLTNHTETITVEEGQTLTLKCVTSLRKNSSLQWLTPSGFTIFLNEYPALKNSKYQLLHHSANQLSITVPNVTLQDEGVYKCLHYSDSVSTKEVKVIVLATPFKPILEASVIRKQNGEEHVVLMCSTMRSKPPPQITWLLGNSMEVSGGTLHEFETDGKKCNTTSTLIIHTYGKNSTVDCIIRHRGLQGRKLVAPFRFEDLVTDEETASDALERNSLSSQDPQQPTSTVSVTEDSSTSEIDKEEKEQTTQDPDLTTEANPQYLGLARKKSGILLLTLVSFLIFILFIIVQLFIMKLRKAHVIWKKENEVSEHTLESYRSRSNNEETSSEEKNGQSSHPMRCMNYITKLYSEAKTKRKENVQHSKLEEKHIQVPESIV”, the “percentage of EdU-negative” value with MCF7 (setting [2]) came to 25.3 ± 1.9%; in the data set with MCF7 (protein concentration 0.225 µM), 25.7 ± 2.4%; in the data set with hTERT-HMEC (setting [2]), 4.57 ± 0.2%; in the data set with hTERT-HMEC (protein concentration 0.225 µM), 4.66 ± 0.87%.

Take “MLKPSLPFTSLLFLQLPLLGVGLNTTILTPNGNEDTTADFFLTTMPTDSLSVSTLPLPEVQCFVFNVEYMNCTWNSSSEPQPTNLTLHYWYKNSDNDKVQKCSHYLFSEEITSGCQLQKKEIHLYQTFVVQLQDPREPRRQATQMLKLQNLVIPWAPENLTLHKLSESQLELNWNNRFLNHCLEHLVQYRTDWDHSWTEQSVDYRHKFSLPSVDGQKRYTFRVRSRFNPLCGSAQHWSEWSHPIHWGSNTSKENPFLFALEAVVISVGSMGLIISLLCVYFWLERTMPRIPTLKNLEDLVTEYHGNFSAWSGVSKGLAESLQPDYSERLCLVSEIPPKGGALGEGPGASPCNQHSPYWAPPCYTLKPET”: the “percentage of EdU-negative” value with MCF7 (setting [7]) is 24.7 ± 0.8%; in the data set with MCF7 (setting [8]), 26.37 ± 0.19%; in the data set on hTERT-HMEC (setting [7]), 5.08 ± 0.64%; in the data set on hTERT-HMEC (setting [8]), 5.6 ± 1.3%.

Consider “MKLMVLVFTIGLTLLLGVQAMPANRLSCYRKILKDHNCHNLPEGVADLTQIDVNVQDHFWDGKGCEMICYCNFSELLCCPKDVFFGPKISFVIPCNNQ”, for which the “percentage of EdU-negative” value in the data set on MCF7 (setting [2]) was determined as 25.5 ± 2.2%; with MCF7 (protein concentration 0.225 µM), 25.5 ± 3.6%; in the data set with hTERT-HMEC (setting [2]), 5.85 ± 0.5%; in the data set with hTERT-HMEC (protein concentration 0.225 µM) it was 6.71 ± 0.2%.

“MLPPWTLGLLLLATVRGKEVCYGQLGCFSDEKPWAGTLQRPVKLLPWSPEDIDTRFLLYTNENPNNFQLITGTEPDTIEASNFQLDRKTRFIIHGFLDKAEDSWPSDMCKKMFEVEKVNCICVDWRHGSRAMYTQAVQNIRVVGAETAFLIQALSTQLGYSLEDVHVIGHSLGAHTAAEAGRRLGGRVGRITGLDPAGPCFQDEPEEVRLDPSDAVFVDVIHTDSSPIVPSLGFGMSQKVGHLDFFPNGGKEMPGCKKNVLSTITDIDGIWEGIGGFVSCNHLRSFEYYSSSVLNPDGFLGYPCASYDEFQESKCFPCPAEGCPKMGHYADQFKGKTSAVEQTFFLNTGESGNFTSWRYKISVTLSGKEKVNGYIRIALYGSNENSKQYEIFKGSLKPDASHTCAIDVDFNVGKIQKVKFLWNKRGINLSEPKLGASQITVQSGEDGTEYNFCSSDTVEENVLQSLYPC”: the “percentage of EdU-negative” value in the data set with MCF7 (setting [2]) was found to be 25.9 ± 0.35%; with MCF7 (protein concentration 0.225 µM), 26.41 ± 0.1%; in the data set with hTERT-HMEC (setting [2]) it was 4.69 ± 0.62%; in the data set with hTERT-HMEC (protein concentration 0.225 µM) it was 5.7 ± 0.076%.
